Assay results: patent US20240010696A1

Molecular target: human IL-12 receptor on cells (human) (UniProt P42701)
Assay: cell-based or functional assay

Sequence of human IL-12 receptor on cells (human) (Q99665 24-862, chain 2 of 2, other chains not shown): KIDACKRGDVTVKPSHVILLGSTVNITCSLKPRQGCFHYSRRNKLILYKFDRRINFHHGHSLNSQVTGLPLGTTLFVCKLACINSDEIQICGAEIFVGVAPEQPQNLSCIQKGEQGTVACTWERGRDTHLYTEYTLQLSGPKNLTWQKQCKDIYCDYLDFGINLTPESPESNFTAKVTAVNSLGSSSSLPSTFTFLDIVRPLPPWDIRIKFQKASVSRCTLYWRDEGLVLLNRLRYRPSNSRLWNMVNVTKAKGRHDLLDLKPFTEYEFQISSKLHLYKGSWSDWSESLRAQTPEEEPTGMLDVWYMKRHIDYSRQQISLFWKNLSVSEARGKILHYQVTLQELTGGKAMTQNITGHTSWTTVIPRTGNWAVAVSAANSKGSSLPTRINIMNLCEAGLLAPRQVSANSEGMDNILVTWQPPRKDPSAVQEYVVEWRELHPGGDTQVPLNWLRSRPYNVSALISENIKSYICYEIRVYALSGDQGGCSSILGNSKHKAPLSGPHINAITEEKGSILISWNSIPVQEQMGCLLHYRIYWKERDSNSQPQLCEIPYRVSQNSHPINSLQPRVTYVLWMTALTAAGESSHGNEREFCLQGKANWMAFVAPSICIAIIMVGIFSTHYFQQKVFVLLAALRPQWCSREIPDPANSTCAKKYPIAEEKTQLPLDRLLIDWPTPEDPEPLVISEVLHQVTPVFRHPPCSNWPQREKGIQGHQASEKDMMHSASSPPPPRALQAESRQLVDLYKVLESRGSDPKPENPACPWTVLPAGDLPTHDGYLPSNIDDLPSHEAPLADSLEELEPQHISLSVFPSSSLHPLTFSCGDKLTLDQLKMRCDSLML

EC50 (ug/ml) hIL12R+ PD1+ cells (pSTAT4 reporter cell line, PD1-positive): 0.03 µg/ml
EC50 (ug/ml) hIL12R+ cells (pSTAT4 reporter cell line, PD1-negative): 0.1 µg/ml
Substance: WT IL-12 (row of Table 10)
